In article PMC5823934, “EGF receptor kinase suppresses ciliogenesis through activation of USP8 deubiquitinase” (Nature Communications, 2018):

Target: T1, GST-USP8 (human, UniProt P40818 1-1118)
T1 construct: USP8 deubiquitinase, human cDNA FLJ76940 from the Human Gene and Protein Database, inserted in frame to GST in pGEX-6P-3 (BamHI/XhoI); Wild type; also called bacterially purified GST-USP8; source: E. coli BL21 (DE3), purified (glutathione-sepharose 4B)
T1 sequence (looked up): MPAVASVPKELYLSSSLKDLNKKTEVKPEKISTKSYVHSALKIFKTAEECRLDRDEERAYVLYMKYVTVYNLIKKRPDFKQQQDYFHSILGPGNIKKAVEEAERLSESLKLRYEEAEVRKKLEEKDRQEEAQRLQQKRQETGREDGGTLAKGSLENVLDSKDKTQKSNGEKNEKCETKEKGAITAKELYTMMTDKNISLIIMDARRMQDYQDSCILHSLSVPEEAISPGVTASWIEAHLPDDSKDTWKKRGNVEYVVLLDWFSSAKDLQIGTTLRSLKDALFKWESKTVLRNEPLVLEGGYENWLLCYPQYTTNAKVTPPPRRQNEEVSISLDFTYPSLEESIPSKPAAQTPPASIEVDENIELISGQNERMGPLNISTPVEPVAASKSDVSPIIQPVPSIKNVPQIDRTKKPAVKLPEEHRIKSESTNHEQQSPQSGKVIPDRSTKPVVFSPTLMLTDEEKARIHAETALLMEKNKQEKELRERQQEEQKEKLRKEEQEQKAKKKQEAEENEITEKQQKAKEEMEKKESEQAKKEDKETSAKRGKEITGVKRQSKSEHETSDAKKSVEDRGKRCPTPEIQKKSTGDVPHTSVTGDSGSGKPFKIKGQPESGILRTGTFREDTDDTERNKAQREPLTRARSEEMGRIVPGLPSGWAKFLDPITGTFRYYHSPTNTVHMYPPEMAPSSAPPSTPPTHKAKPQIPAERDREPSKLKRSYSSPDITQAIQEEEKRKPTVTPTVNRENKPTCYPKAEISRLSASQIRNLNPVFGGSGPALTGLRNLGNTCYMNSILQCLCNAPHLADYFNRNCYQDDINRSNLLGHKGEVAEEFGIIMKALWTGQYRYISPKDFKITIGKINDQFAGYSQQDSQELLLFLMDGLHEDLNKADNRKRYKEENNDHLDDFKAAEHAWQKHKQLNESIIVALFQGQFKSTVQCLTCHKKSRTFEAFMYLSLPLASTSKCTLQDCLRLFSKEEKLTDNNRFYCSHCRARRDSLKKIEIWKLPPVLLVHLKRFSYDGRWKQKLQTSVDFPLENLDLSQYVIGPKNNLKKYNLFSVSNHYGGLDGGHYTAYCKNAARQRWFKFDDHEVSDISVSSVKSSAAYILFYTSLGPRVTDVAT
Experiment: pull-down; MBP-trichoplein (1 ug) and GST-USP8 (1 ug) in cell lysis buffer (20 mM Tris-HCl pH 7.5, 150 mM NaCl, 2 mM beta-glycerophosphate, 2 mM EGTA, 1% Triton X-100), 2 h at 4 °C; glutathione-sepharose 4B; immunoblot
Conditions: both partners purified

- binding result: binds
B1: MBP-trichoplein (natural protein, human, UniProt Q9BT92 1-498, looked up)
chain: MALPTLPSYWCSQQRLNQQLARQREQEARLRQQWEQNSRYFRMSDICSSKQAEWSSKTSYQRSMHAYQREKMKEEKRRSLEARREKLRQLMQEEQDLLARELEELRLSMNLQERRIREQHGKLKSAKEEQRKLIAEQLLYEHWKKNNPKLREMELDLHQKHVVNSWEMQKEEKKQQEATAEQENKRYENEYERARREALERMKAEEERRQLEDKLQAEALLQQMEELKLKEVEATKLKKEQENLLKQRWELERLEEERKQMEAFRQKAELGRFLRHQYNAQLSRRTQQIQEELEADRRILQALLEKEDESQRLHLARREQVMADVAWMKQAIEEQLQLERAREAELQMLLREEAKEMWEKREAEWARERSARDRLMSEVLTGRQQQIQEKIEQNRRAQEESLKHREQLIRNLEEVRELARREKEESEKLKSARKQELEAQVAERRLQAWEADQQEEEEEEEARRVEQLSDALLQQEAETMAEQGYRPKPYGHPKIAWN
notes: also called recombinant MBP-trichoplein; source: E. coli BL21 CodonPlus RP, purified (amylose resin)
